± gives the uncertainty stated by the source.
Tested on: HEK293T
Test: plasma membrane surface immunostaining intensity (anti-HA, deep receptor scanning) (arbitrary fluorescence units); higher = higher plasma membrane expression
Conditions: GPCR class: A

Row | Sequence | plasma membrane surface immunostaining intensity
1 | MNVSGCPGAGNASQAGGGGGWHPEAVIVPLLFALIFLVGTVGNTLVLAVLLRGGQAVSTTNLFILNLGVADLCFILCCVPFQATIYTLDGWVFGSLLCKAVHFLIFLTMHASSFTLAAVSLDRYLAIRYPLHSRELRTPRNALAAIGLIWGLSLLFSGPYLSYYRQSQLANLTVCHPAWSAPRRRAMDICTFVFSYLLPVLVLGLTYARTLRYLWRAVDPVAAGSGARRAKRKVTRMILIVAALFCLCWMPHHALILCVWFGQFPLTRATYALRILSHLVSYANSCVNPIVYALVSKHFRKGFRTICAGLLGRAPGRASGRVCAAARGTHSGSVLERESSDLLHMSEAAGALRPCPGASQPCILEPCPGPSWQGPKAGDSILTVDVA [GALR2] | 2060 ± 420
2 | MNYPLTLEMDLENLEDLFWELDRLDNYNDTSLVENHLCPATEGPLMASFKAVFVPVAYSLIFLLGVIGNVLVLVILERHRQTRSSTETFLFHLAVADLLLVFILPFAVAEGSVGWVLGTFLCKTVIALHKVNFYCSSLLLACIAVDRYLAIVHAVHAYRHRRLLSIHITCGTIWLVGFLLALPEILFAKVSQGHHNNSLPRCTFSQENQAETHAWFTSRFLYHVAGFLLPMLVMGWCYVGVVHRLRQAQRRPQRQKAVRVAILVTSIFFLCWSPYHIVIFLDTLARLKAVDNTCKLNGSLPVAITMCEFLGLAHCCLNPMLYTFAGVKFRSDLSRLLTKLGCTGPASLCQLFPSWRRSSLSESENATSLTTF [CXCR5] | 630 ± 74
3 | MPANFTEGSFDSSGTGQTLDSSPVACTETVTFTEVVEGKEWGSFYYSFKTEQLITLWVLFVFTIVGNSVVLFSTWRRKKKSRMTFFVTQLAITDSFTGLVNILTDINWRFTGDFTAPDLVCRVVRYLQVVLLYASTYVLVSLSIDRYHAIVYPMKFLQGEKQARVLIVIAWSLSFLFSIPTLIIFGKRTLSNGEVQCWALWPDDSYWTPYMTIVAFLVYFIPLTIISIMYGIVIRTIWIKSKTYETVISNCSDGKLCSSYNRGLISKAKIKAIKYSIIIILAFICCWSPYFLFDILDNFNLLPDTQERFYASVIIQNLPALNSAINPLIYCVFSSSISFPCREQRSQDSRMTFRERTERHEMQILSKPEFI [NPSR1] | 457 ± 42
4 | MPIMGSSVYITVELAIAVLAILGNVLVCWAVWLNSNLQNVTNYFVVSLAAADIAVGVLAIPFAITISTGFCAACHGCLFIACFVLVLTQSSIFSLLAIAIDRYIAIRIPLRYNGLVTGTRAKGIIAICWVLSFAIGLTPMLGWNNCGQPKEGKNHSQGCGEGQVACLFEDVVPMNYMVYFNFFACVLVPLLLMLGVYLRIFLAARRQLKQMESQPLPGERARSTLQKEVHAAKSLAIIVGLFALCWLPLHIINCFTFFCPDCSHAPLWLMYLAIVLSHTNSVVNPFIYAYRIREFRQTFRKIIRSHVLRQQEPFKAAGTSARVLAAHGSDGEQVSLRLNGHPPGVWANGSAPHPERRPNGYALGLVSGGSAQESQGNTGLPDVELLSHELKGVCPEPPGLDDPLAQDGAGVS [ADORA2A] | 5780 ± 120
5 | MPNNSTALSLANVTYITMEIFIGLCAIVGNVLVICVVKLNPSLQTTTFYFIVSLALADIAVGVLVMPLAIVVSLGITIHFYSCLFMTCLLLIFTHASIMSLLAIAVDRYLRVKLTVRYKRVTTHRRIWLALGLCWLVSFLVGLTPMFGWNMKLTSEYHRNVTFLSCQFVSVMRMDYMVYFSFLTWIFIPLVVMCAIYLDIFYIIRNKLSLNLSNSKETGAFYGREFKTAKSLFLVLFLFALSWLPLSIINCIIYFNGEVPQLVLYMGILLSHANSMMNPIVYAYKIKKFKETYLLILKACVVCHPSDSLDTSIEKNSE [ADORA3] | 5830 ± 110
6 | MPPSISAFQAAYIGIEVLIALVSVPGNVLVIWAVKVNQALRDATFCFIVSLAVADVAVGALVIPLAILINIGPQTYFHTCLMVACPVLILTQSSILALLAIAVDRYLRVKIPLRYKMVVTPRRAAVAIAGCWILSFVVGLTPMFGWNNLSAVERAWAANGSMGEPVIKCEFEKVISMEYMVYFNFFVWVLPPLLLMVLIYLEVFYLIRKQLNKKVSASSGDPQKYYGKELKIAKSLALILFLFALSWLPLHILNCITLFCPSCHKPSILTYIAIFLTHGNSAMNPIVYAFRIQKFRVTFLKIWNDHFRCQPAPPIDEDLPEERPDD [ADORA1] | 6412 ± 62
7 | MPSKSLSNLSVTTGANESGSVPEGWERDFLPASDGTTTELVIRCVIPSLYLLIITVGLLGNIMLVKIFITNSAMRSVPNIFISNLAAGDLLLLLTCVPVDASRYFFDEWMFGKVGCKLIPVIQLTSVGVSVFTLTALSADRYRAIVNPMDMQTSGALLRTCVKAMGIWVVSVLLAVPEAVFSEVARISSLDNSSFTACIPYPQTDELHPKIHSVLIFLVYFLIPLAIISIYYYHIAKTLIKSAHNLPGEYNEHTKKQMETRKRLAKIVLVFVGCFIFCWFPNHILYMYRSFNYNEIDPSLGHMIVTLVARVLSFGNSCVNPFALYLLSESFRRHFNSQLCCGRKSYQERGTSYLLSSSAVRMTSLKSNAKNMVTNSVLLNGHSMKQEMAL [NMBR] | 2430 ± 1200
8 | MPSPPGLRALWLCAALCASRRAGGAPQPGPGPTACPAPCHCQEDGIMLSADCSELGLSAVPGDLDPLTAYLDLSMNNLTELQPGLFHHLRFLEELRLSGNHLSHIPGQAFSGLYSLKILMLQNNQLGGIPAEALWELPSLQSLRLDANLISLVPERSFEGLSSLRHLWLDDNALTEIPVRALNNLPALQAMTLALNRISHIPDYAFQNLTSLVVLHLHNNRIQHLGTHSFEGLHNLETLDLNYNKLQEFPVAIRTLGRLQELGFHNNNIKAIPEKAFMGNPLLQTIHFYDNPIQFVGRSAFQYLPKLHTLSLNGAMDIQEFPDLKGTTSLEILTLTRAGIRLLPSGMCQQLPRLRVLELSHNQIEELPSLHRCQKLEEIGLQHNRIWEIGADTFSQLSSLQALDLSWNAIRSIHPEAFSTLHSLVKLDLTDNQLTTLPLAGLGGLMHLKLKGNLALSQAFSKDSFPKLRILEVPYAYQCCPYGMCASFFKASGQWEAEDLHLDDEESSKRPLGLLARQAENHYDQDLDELQLEMEDSKPHPSVQCSPTPGPFKPCEYLFESWGIRLAVWAIVLLSVLCNGLVLLTVFAGGPVPLPPVKFVVGAIAGANTLTGISCGLLASVDALTFGQFSEYGARWETGLGCRATGFLAVLGSEASVLLLTLAAVQCSVSVSCVRAYGKSPSLGSVRAGVLGCLALAGLAAALPLASVGEYGASPLCLPYAPPEGQPAALGFTVALVMMNSFCFLVVAGAYIKLYCDLPRGDFEAVWDCAMVRHVAWLIFADGLLYCPVAFLSFASMLGLFPVTPEAVKSVLLVVLPLPACLNPLLYLLFNPHFRDDLRRLRPRAGDSGPLAYAAAGELEKSSCDSTQALVAFSDVDLILEASEAGRPPGLETYGFPSVTLISCQQPGAPRLEGSHCVEPEGNHFGNPQPSMDGELLLRAEGSTPAGGGLSGGGGFQPSGLAFASHV [LGR6] | 479 ± 50
9 | MQALNITPEQFSRLLRDHNLTREQFIALYRLRPLVYTPELPGRAKLALVLTGVLIFALALFGNALVFYVVTRSKAMRTVTNIFICSLALSDLLITFFCIPVTMLQNISDNWLGGAFICKMVPFVQSTAVVTEILTMTCIAVERHQGLVHPFKMKWQYTNRRAFTMLGVVWLVAVIVGSPMWHVQQLEIKYDFLYEKEHICCLEEWTSPVHQKIYTTFILVILFLLPLMVMLILYSKIGYELWIKKRVGDGSVLRTIHGKEMSKIARKKKRAVIMMVTVVALFAVCWAPFHVVHMMIEYSNFEKEYDDVTIKMIFAIVQIIGFSNSICNPIVYAFMNENFKKNVLSAVCYCIVNKTFSPAQRHGNSGITMMRKKAKFSLRENPVEETKGEAFSDGNIEVKLCEQTEEKKKLKRHLALFRSELAENSPLDSGH [QRFPR] | 392 ± 31

Same assay, conditions: GPCR class: A (Olfactory)

Row | Sequence | plasma membrane surface immunostaining intensity
10 | MPKLNSTFVTEFLFEGFSSFRRQHKLVFFVVFLTLYLLTLSGNVIIMTIIRLDHHLHTPMYFFLCMLSISETCYTVAIIPHMLSGLLNPHQPIATQSCATQLFFYLTFGINNCFLLTVMGYDRYVAICNPLRYSVIMGKRACIQLASGSLGIGLGMAIVQVTSVFGLPFCDAFVISHFFCDVRHLLKLACTDTTVNEIINFVVSVCVLVLPMGLVFISYVLIISTILKIASAEGQKKAFATCASHLTVVIIHYGCASIIYLKPKSQSSLGQDRLISVTYTHHSPTEPCCVQPEEQGGQRCSAQSRGAKNSVSLMKRGCEGFSFAFINMY [OR10J3] | 164 ± 60
11 | MPNFTDVTEFTLLGLTCRQELQVLFFVVFLAVYMITLLGNIGMIILISISPQLQSPMYFFLSHLSFADVCFSSNVTPKMLENLLSETKTISYVGCLVQCYFFIAVVHVEVYILAVMAFDRYMAGCNPLLYGSKMSRTVCVRLISVPYVYGFSVSLICTLWTYGLYFCGNFEINHFYCADPPLIQIACGRVHIKEITMIVIAGINFTYSLSVVLISYTLIVVAVLRMRSADGRRKAFSTCGSHLTAVSMFYGTPIFMYLRRPTEESVEQGKMVAVFYTTVIPMLNPMIYSLRNKDVKEAVNKAITKTYVRQ [OR5M9] | 133 ± 54
12 | MPNSTTVMEFLLMRFSDVWTLQILHSASFFMLYLVTLMGNILIVTVTTCDSSLHMPMYFFLRNLSILDACYISVTVPTSCVNSLLDSTTISKAGCVAQVFLVVFFVYVELLFLTIMAHDRYVAVCQPLHYPVIVNSRICIQMTLASLLSGLVYAGMHTGSTFQLPFCRSNVIHQFFCDIPSLLKLSCSDTFSNEVMIVVSALGVGGGCFIFIIRSYIHIFSTVLGFPRGADRTKAFSTCIPHILVVSVFLSSCSSVYLRPPAIPAATQDLILSGFYSIMPPLFNPIIYSLRNKQIKVAIKKIMKRIFYSENV [OR14C36] | 264 ± 80
13 | MPVGKLVFNQSEPTEFVFRAFTTATEFQVLLFLLFLLLYLMILCGNTAIIWVVCTHSTLRTPMYFFLSNLSFLELCYTTVVVPLMLSNILGAQKPISLAGCGAQMFFFVTLGSTDCFLLAIMAYDRYVAICHPLHYTLIMTRELCTQMLGGALGLALFPSLQLTALIFTLPFCGHHQEINHFLCDVPPVLRLACADIRVHQAVLYVVSILVLTIPFLLICVSYVFITCAILSIRSAEGRRRAFSTCSFHLTVVLLQYGCCSLVYLRPRSSTSEDEDSQIALVYTFVTPLLNPLLYSLRNKDVKGALRSAIIRKAASDAN [OR10Q1] | 243 ± 67
14 | MQGENFTIWSIFFLEGFSQYPGLEVVLFVFSLVMYLTTLLGNSTLILITILDSRLKTPMYLFLGNLSFMDICYTSASVPTLLVNLLSSQKTIIFSGCAVQMYLSLAMGSTECVLLAVMAYDRYVAICNPLRYSIIMNRCVCARMATVSWVTGCLTALLETSFALQIPLCGNLIDHFTCEILAVLKLACTSSLLMNTIMLVVSILLLPIPMLLVCISYIFILSTILRITSAEGRNKAFSTCGAHLTVVILYYGAALSMYLKPSSSNAQKIDKIISLLYGVLTPMLNPIIYSLRNKEVKDAMKKLLGKITLHQTHEHL [OR2K2] | 144 ± 20
15 | MQGLNHTSVSEFILVGFSAFPHLQLMLFLLFLLMYLFTLLGNLLIMATVWSERSLHMPMYLFLCALSITEILYTVAIIPRMLADLLSTQRSIAFLACASQMFFSFSFGFTHSFLLTVMGYDRYVAICHPLRYNVLMSLRGCTCRVGCSWAGGLVMGMVVTSAIFHLAFCGHKEIHHFFCHVPPLLKLACGDDVLVVAKGVGLVCITALLGCFLLILLSYAFIVAAILKIPSAEGRNKAFSTCASHLTVVVVHYGFASVIYLKPKGPQSPEGDTLMGITYTVLTPFLSPIIFSLRNKELKVAMKKTCFTKLFPQNC [OR10H5] | 129 ± 21

Same assay, conditions: GPCR class: Taste

Row | Sequence | plasma membrane surface immunostaining intensity
16 | MQAALTAFFVLLFSLLSLLGIAANGFIVLVLGREWLRYGRLLPLDMILISLGASRFCLQLVGTVHNFYYSAQKVEYSGGLGRQFFHLHWHFLNSATFWFCSWLSVLFCVKIANITHSTFLWLKWRFPGWVPWLLLGSVLISFIITLLFFWVNYPVYQEFLIRKFSGNMTYKWNTRIETYYFPSLKLVIWSIPFSVFLVSIMLLINSLRRHTQRMQHNGHSLQDPSTQAHTRALKSLISFLILYALSFLSLIIDAAKFISMQNDFYWPWQIAVYLCISVHPFILIFSNLKLRSVFSQLLLLARGFWVA [TAS2R41] | 129 ± 20

Reference: the supplement of paper PMC12458215
